Here are results for six compounds from paper PMC6017014, “VpStyA1/VpStyA2B of Variovorax paradoxus EPS: An Aryl Alkyl Sulfoxidase Rather than a Styrene Epoxidizing Monooxygenase” (Molecules : A Journal of Synthetic Chemistry and Natural …, 2018).

The test system of series [1] is Cc1cc2nc3c(=O)[nH]c(=O)nc-3n(C[C@H](O)[C@H](O)[C@H](O)COP(=O)(O)OP(=O)(O)OC[C@H]3O[C@@H](n4cnc5c(N)ncnc54)[C@H](O)[C@@H]3O)c2cc1C. Briefly: purified protein. The conditions noted are these: 20 mM Tris-HCl pH 7.5, 30 °C. Format: biochemical, Variovorax paradoxus.
For series [2], the system named is Cc1cc2nc3c(=O)[nH]c(=O)nc-3n(C[C@H](O)[C@H](O)[C@H](O)COP(=O)(O)O)c2cc1C. The experiment in a line: purified protein. Format: biochemical, Variovorax paradoxus. The conditions noted are these: NADH 164 µM, FMN 4.1-90.2 µM, 20 mM Tris-HCl pH 7.5, 30 °C.
The target in series [3] is T1, VpStyA2B (Variovorax paradoxus, UniProt E6V139).
T1 construct: gene styA2B
Briefly: NADH consumption at […] nm, Michaelis-Menten fit. Format: biochemical. The conditions noted are these: linker AREAV (408-412) replaced/extended; NADH in excess, concentrations as for wild type; 20 mM Tris-HCl pH 7.5, 30 °C; read-out: Acceptor FAD ^1 / Km.

Setting [4] is: 408-WYHHH linker mutant, NADH in excess, concentrations as for wild type.
Setting [5] is: 408-AAAAA linker mutant, NADH in excess, concentrations as for wild type.
[6] abbreviates: 408-TIVVV linker mutant, NADH in excess, concentrations as for wild type.
Where [7] appears, read: 408-HHHHH linker mutant, NADH in excess, concentrations as for wild type.

T1 sequence (E6V139 1-578): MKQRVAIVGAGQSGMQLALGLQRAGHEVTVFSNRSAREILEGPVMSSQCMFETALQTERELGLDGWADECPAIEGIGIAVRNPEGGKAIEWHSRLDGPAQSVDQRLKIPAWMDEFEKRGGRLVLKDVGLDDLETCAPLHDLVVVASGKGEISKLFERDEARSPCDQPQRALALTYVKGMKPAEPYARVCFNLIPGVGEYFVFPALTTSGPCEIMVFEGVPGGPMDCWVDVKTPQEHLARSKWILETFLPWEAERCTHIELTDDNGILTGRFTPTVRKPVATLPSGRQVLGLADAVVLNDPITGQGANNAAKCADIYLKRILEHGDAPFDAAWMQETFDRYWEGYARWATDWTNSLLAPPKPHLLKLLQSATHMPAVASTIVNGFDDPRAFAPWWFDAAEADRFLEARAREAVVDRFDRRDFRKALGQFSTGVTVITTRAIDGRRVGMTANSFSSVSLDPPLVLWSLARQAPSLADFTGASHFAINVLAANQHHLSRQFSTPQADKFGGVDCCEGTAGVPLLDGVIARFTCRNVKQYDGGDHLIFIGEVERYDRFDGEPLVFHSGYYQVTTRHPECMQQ

The term Vmax denotes the rate approached at saturating substrate. By kcat/Km is commonly meant the second-order rate constant that governs catalysis at low substrate concentration. In the case of “VpStyA2B (Variovorax paradoxus EPS; A408W/A411H/E410H/R409Y/V412H)”, in series [1] (setting [4]), the Km is given as 3.2 µM, the maximum rate (Vmax) was 6.9 µmol/min/mg and the kcat/Km amounted to 2.3e+06 M⁻¹ s⁻¹.

In general, kcat refers to the number of substrate molecules converted per active site and unit of time at saturation. As for VpStyA2B (Variovorax paradoxus EPS), in series [2], the Km is 45.9 ± 6.8 µM, the Vmax is 26 µmol/min/mg, the turnover number (kcat) was determined as 28.7 ± 1.9 s⁻¹ and the kcat/Km was 570000 M⁻¹ s⁻¹. In addition, in series [1] (NADH 164 µM, FAD 6.3-78.8 µM), the Km amounted to 33.6 ± 4.0 µM, the Vmax was found to be 20.2 µmol/min/mg, the kcat is 22.3 ± 1.1 s⁻¹ and the catalytic efficiency (kcat/Km) stood at 640000 M⁻¹ s⁻¹.

For the compound “VpStyA2B (Variovorax paradoxus EPS; E410A/R409A/V412A)”, in series [1] (setting [5]), the Km worked out at 1.8 µM, the Vmax was determined as 8.8 µmol/min/mg and the kcat/Km turned out to be 5.21e+06 M⁻¹ s⁻¹.

In the case of “VpStyA2B (Variovorax paradoxus EPS; A408T/A411V/E410V/R409I)”, in series [1] (setting [6]), the Km is listed as 5.1 µM, the Vmax came out at 3.1 µmol/min/mg and the catalytic efficiency (kcat/Km) was 650000 M⁻¹ s⁻¹.

For `Cc1cc2nc3c(=O)[nH]c(=O)nc-3n(C[C@H](O)[C@H](O)[C@H](O)COP(=O)(O)OP(=O)(O)OC[C@H]3O[C@@H](n4cnc5c(N)ncnc54)[C@H](O)[C@@H]3O)c2cc1C` [FAD], the Km in series [3] is 7.4 µM.

On to “VpStyA2B (Variovorax paradoxus EPS; A408H/A411H/E410H/R409H/V412H)”, for which, in series [1] (setting [7]), the Km worked out at 14.5 µM, the Vmax turned out to be 3.1 µmol/min/mg and the catalytic efficiency (kcat/Km) came to 230000 M⁻¹ s⁻¹.
